# Source: paper PMC7383231, “Pseudo-RNA-Binding Domains Mediate RNA Structure Specificity in Upstream of N-Ras”
# T1: dUnr CSD456 (Drosophila melanogaster, UniProt B7Z0E2 424-677)
# T1 sequence: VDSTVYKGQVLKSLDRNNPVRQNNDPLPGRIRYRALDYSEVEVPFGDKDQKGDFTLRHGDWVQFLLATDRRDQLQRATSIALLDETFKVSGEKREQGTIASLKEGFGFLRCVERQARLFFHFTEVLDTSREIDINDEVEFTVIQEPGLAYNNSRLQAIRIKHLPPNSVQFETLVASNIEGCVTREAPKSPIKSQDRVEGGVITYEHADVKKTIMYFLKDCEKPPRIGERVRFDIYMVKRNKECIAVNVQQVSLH
# T2: Unr full-length (dUnr) (Drosophila melanogaster, UniProt B7Z0E2 1-1039)
# T2 sequence: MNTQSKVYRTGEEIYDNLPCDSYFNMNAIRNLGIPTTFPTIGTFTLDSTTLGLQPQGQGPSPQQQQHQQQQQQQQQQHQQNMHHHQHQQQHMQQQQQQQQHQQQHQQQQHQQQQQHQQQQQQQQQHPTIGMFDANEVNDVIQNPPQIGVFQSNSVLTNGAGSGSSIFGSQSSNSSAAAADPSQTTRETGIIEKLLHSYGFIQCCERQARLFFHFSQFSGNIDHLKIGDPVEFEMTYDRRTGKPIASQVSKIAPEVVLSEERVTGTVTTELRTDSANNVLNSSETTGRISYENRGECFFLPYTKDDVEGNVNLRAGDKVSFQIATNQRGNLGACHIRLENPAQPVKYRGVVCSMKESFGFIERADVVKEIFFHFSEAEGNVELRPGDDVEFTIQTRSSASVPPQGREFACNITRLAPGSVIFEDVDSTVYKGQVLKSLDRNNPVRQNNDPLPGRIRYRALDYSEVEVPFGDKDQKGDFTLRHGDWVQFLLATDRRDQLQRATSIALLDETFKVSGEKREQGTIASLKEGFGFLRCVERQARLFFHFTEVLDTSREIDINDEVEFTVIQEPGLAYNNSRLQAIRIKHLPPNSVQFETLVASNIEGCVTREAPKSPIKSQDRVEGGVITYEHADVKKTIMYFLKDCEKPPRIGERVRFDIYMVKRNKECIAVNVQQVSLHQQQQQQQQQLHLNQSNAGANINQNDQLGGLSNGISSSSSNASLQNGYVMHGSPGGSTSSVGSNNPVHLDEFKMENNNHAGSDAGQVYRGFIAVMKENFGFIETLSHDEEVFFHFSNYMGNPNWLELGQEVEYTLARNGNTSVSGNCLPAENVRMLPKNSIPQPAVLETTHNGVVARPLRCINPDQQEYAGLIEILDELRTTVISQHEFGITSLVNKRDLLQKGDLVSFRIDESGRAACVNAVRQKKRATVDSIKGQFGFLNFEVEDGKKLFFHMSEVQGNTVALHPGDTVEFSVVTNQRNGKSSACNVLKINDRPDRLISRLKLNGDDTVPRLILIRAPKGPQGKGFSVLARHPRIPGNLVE
# T3: dUnr CSD789 (Drosophila melanogaster, UniProt B7Z0E2 756-990)
# T3 sequence: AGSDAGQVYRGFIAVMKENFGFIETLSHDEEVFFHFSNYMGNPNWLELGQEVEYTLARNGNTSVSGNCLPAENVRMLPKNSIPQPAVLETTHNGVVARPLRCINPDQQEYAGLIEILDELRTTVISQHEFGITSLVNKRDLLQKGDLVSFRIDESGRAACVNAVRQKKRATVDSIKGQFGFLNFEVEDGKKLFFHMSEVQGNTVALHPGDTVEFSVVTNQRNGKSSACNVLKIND
# T4: dUnr CSD123 (Drosophila melanogaster, UniProt B7Z0E2 186-414)
# T4 sequence: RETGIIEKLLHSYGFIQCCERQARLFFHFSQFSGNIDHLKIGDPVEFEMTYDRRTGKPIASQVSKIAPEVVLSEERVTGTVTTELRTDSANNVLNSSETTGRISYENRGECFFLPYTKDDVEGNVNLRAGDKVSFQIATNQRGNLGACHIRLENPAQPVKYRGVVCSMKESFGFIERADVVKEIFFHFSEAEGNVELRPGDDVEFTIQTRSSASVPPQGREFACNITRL
# T5: dUnr CSD9 (Drosophila melanogaster, UniProt B7Z0E2 898-990)
# T5 sequence: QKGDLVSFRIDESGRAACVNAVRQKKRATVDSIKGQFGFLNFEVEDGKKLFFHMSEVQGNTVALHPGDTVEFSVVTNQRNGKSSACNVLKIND
# T6: dUnr CSD78 (Drosophila melanogaster, UniProt B7Z0E2 756-922)
# T6 sequence: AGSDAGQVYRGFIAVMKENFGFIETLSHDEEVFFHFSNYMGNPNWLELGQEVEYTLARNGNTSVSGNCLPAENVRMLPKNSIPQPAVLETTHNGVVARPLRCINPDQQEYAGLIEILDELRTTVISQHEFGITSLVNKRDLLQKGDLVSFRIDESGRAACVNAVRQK
# T7: dUnr ncCSD8 (Drosophila melanogaster, UniProt B7Z0E2 841-922)
# T7 sequence: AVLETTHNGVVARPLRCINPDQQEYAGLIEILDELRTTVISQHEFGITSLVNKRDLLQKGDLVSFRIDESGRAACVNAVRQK
# T8: dUnr ncCSD6 (Drosophila melanogaster, UniProt B7Z0E2 593-677)
# T8 sequence: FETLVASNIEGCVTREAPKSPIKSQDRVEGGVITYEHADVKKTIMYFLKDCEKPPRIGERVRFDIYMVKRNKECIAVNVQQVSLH
# B1: SL67 (roX2 lncRNA stem loops 6 and 7) (structured_RNA)
# RNA: ACAAUAUGCAAUACAAUACAAUACAAGACAAAAAAAUGUGUCUUGGAACCAACAUUGUACAAGUCGCAAUGCAAACUGAAGUCUUAAAAGACGUGUAAAAUGUUGCAAAUUAAGCAAAUAUAUAUGCAUAUAUGGGUAACGUUUUACGCGCCUUAACCAGU
# Tests used:
# [1] = target: T1, dUnr CSD456; assay: EMSA; EMSA: 20 mM HEPES/NaOH pH 7.5, 50 mM NaCl, 10% glycerol, 2 mM DTT, 1 h at 4 C, ~25 nM RNA; NMR: 20 mM NaP pH 6.5, 50 mM NaCl, 1 mM DTT (10 mM for CSD12), 10% D2O, 298 K; details: protein: recombinant; tags: tag cleaved with TEV; label: 3' pCp-Cy5; stem loops
# [2] = target: T2, Unr full-length (dUnr); assay: as above; details: protein: recombinant; tags: His6; label: 3' pCp-Cy5; stem loops
# [3] = target: T3, dUnr CSD789; assay: as above; details: protein: recombinant; tags: tag cleaved with TEV; label: 3' pCp-Cy5; stem loops
# [4] = target: T4, dUnr CSD123; assay: as above; details: protein: recombinant; tags: tag cleaved with TEV; label: 3' pCp-Cy5; stem loops
# [5] = target: T3, dUnr CSD789; assay: NMR titration; deuterated protein; CSPs in all three domains, intermediate-to-slow exchange; EMSA: 20 mM HEPES/NaOH pH 7.5, 50 mM NaCl, 10% glycerol, 2 mM DTT, 1 h at 4 C, ~25 nM RNA; NMR: 20 mM NaP pH 6.5, 50 mM NaCl, 1 mM DTT (10 mM for CSD12), 10% D2O, 298 K; details: protein: recombinant; tags: tag cleaved with TEV
# [6] = target: T5, dUnr CSD9; assay: NMR titration; joint range given for CSD78 and CSD9; EMSA: 20 mM HEPES/NaOH pH 7.5, 50 mM NaCl, 10% glycerol, 2 mM DTT, 1 h at 4 C, ~25 nM RNA; NMR: 20 mM NaP pH 6.5, 50 mM NaCl, 1 mM DTT (10 mM for CSD12), 10% D2O, 298 K; details: protein: recombinant; tags: tag cleaved with TEV
# [7] = target: T6, dUnr CSD78; assay: as above; details: protein: recombinant; tags: tag cleaved with TEV
# [8] = target: T7, dUnr ncCSD8; assay: NMR titration; no CSPs; EMSA: 20 mM HEPES/NaOH pH 7.5, 50 mM NaCl, 10% glycerol, 2 mM DTT, 1 h at 4 C, ~25 nM RNA; NMR: 20 mM NaP pH 6.5, 50 mM NaCl, 1 mM DTT (10 mM for CSD12), 10% D2O, 298 K; details: protein: recombinant; tags: tag cleaved with TEV
# [9] = target: T8, dUnr ncCSD6; assay: as above; details: protein: recombinant; tags: tag cleaved with TEV
binder,measurement,setting,value
B1,Kd,[1],16 µM
same,Kd,[2],0.707 µM
same,Kd,[3],32 µM
same,Kd,[4],1.41 µM
AAAAAAAAAAAAAAA (ssRNA) [A15-mer RNA],binding result,[5],binds
AAAAAAAUG (ssRNA) [9-mer RNA from roX2 SL6 loop],Kd,[6],~245 µM
same,Kd,[7],~245 µM
same,binding result,[8],no binding
same,binding result,[9],no binding
